Data on three substances can be found in patent US7105166.

Some results are limits rather than exact numbers.

For assay [1], the target named is CTLA4Ig (human). Briefly: Scatchard analysis of competition data, 125I-B7Ig on immobilized CTLA4Ig.
The target of assay [2] is CTLA4Ig (human). Briefly: solid phase competition of 125I-B7Ig binding to immobilized CTLA4Ig.
Assay [3] deals with CTLA4Ig (human). Briefly: 125I-B7Ig (4 nM) on plate-coated CTLA4Ig.
Assay [4] concerns the target CD28 expressed on transfected cells (human) (UniProt P10747). Briefly: inhibition of 125I-B7Ig binding to cell surface expressed CD28.
Assay [5] addresses CD28Ig (human) [IgG part: P01857]. Briefly: inhibition of 125I-B7Ig binding to immobilized CD28Ig.
Assay [6] has as its target B7 antigen (B7-1, CD80) expressed on cells (human) (UniProt P33681). Briefly: cell-based or functional assay.
A further assay concerns the target B7Ig (human) (UniProt P33681). Briefly: solid phase competition of 125I-B7Ig binding to immobilized CTLA4Ig.

Usually Kd stands for a measure of binding affinity in units of concentration. Low values mean higher affinity, high ones lower affinity. By IC50 is commonly meant the concentration that gives 50% inhibition. A lower IC50 goes with greater potency in that assay. In the case of “B7Ig (from UniProt P33681 35-249; P01857 99-330) (Fc fusion)”, the dissociation constant Kd in the assay with CTLA4Ig (human) [1] stood at 12 nM. The concentration for half-maximal inhibition (IC50) with CTLA4Ig (human) [2] is 175 nM. Further, in the assay with CTLA4Ig (human) [3], the radioactivity bound to wells treated without competitor worked out at 28300 cpm.
As for mAb 9.3 (antibody), the inhibition of ^125I-B7Ig binding in assay [4] and in assay [5] was above 90% in each case.
On to mAb BB-1 (antibody), for which the inhibition of Th-induced IgM production in assay [6] was 65%. Further, the IC50 with B7Ig (human) turned out to be 22 nM.
